{"source": "patent US6676941B2", "about": "(Board of Regents, The University of Texas System, priority 1999, dated 2004)", "molecules": {"B1": {"name": "endostatin (protein, UniProt P39060 1572-1754, looked up)", "Endostatin": "HSHRDFQPVLHLVALNSPLSGGMRGIRGADFQCFQQARAVGLAGTFRAFLSSRLQDLYSIVRRADRAAVPIVNLKDELLFPSWEALFSGSEGPLKPGARIFSFDGKDVLRHPTWPQKSVWHGSDPNGRRLTESYCETWRTEAPSATGQASSLLGGRLLGQSAASCHHAYIVLCIENSFMTASK", "modifications": "Endostatin"}}, "test_system": "Bend3 mouse endothelial cells; ABAE; HUVEC", "assay": "Direct binding of biotinylated 6-His endostatin to endothelial cells", "format": "cell-based, bovine, human", "conditions": "streptavidin-peroxidase detection", "source_text": "Binding was detected using streptavidin-peroxidase in conjunction with O-phenylenediamine (OPD) and the absorbance read at 490 nm."}
{"molecule": "B1", "values": [{"measurement": "Binding to endothelial cells in vitro", "result": "bound in a saturable fashion"}]}
